Experimental data from patent US20040086528A1 (PROGENICS PHARMACEUTICALS, published 2004).

T1: CCR5 D2A, HA-tagged (human, UniProt P51681 1-352)
T1 sequence (looked up): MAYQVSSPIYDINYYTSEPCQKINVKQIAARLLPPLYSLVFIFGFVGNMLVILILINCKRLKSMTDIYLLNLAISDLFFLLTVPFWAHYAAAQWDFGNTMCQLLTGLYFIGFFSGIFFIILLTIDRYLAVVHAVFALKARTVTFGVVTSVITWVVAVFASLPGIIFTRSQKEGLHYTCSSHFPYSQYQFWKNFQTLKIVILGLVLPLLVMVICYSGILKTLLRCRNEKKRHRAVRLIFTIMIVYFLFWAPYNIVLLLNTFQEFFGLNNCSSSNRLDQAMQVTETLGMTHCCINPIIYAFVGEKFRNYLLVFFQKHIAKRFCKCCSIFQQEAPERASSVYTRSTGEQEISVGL

T2: CCR5 R274A/D276A, HA-tagged (human, UniProt P51681 1-352)
T2 sequence: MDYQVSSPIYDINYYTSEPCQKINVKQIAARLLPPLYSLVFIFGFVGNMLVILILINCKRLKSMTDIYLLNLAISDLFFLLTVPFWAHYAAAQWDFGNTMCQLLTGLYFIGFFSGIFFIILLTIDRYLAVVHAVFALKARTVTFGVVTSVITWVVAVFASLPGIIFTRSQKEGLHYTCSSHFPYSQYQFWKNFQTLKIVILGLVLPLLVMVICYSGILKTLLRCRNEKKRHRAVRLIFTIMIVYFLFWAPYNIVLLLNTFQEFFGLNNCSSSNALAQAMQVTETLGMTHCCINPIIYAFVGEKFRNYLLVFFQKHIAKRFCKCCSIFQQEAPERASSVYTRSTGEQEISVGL

T3: CCR5 E18A, HA-tagged (human, UniProt P51681 1-352)
T3 sequence (looked up): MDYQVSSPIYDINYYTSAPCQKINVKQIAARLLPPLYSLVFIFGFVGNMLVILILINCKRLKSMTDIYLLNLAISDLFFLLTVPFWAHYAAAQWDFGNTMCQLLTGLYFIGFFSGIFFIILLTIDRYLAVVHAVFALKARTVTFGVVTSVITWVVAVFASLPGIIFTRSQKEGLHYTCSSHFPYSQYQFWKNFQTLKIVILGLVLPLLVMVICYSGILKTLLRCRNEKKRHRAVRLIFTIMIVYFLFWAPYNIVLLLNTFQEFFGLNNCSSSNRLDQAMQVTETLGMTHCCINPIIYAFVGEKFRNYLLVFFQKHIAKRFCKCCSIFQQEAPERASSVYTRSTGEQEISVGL

T4: CCR5 K171A/E172A, HA-tagged (human, UniProt P51681 1-352)
T4 sequence: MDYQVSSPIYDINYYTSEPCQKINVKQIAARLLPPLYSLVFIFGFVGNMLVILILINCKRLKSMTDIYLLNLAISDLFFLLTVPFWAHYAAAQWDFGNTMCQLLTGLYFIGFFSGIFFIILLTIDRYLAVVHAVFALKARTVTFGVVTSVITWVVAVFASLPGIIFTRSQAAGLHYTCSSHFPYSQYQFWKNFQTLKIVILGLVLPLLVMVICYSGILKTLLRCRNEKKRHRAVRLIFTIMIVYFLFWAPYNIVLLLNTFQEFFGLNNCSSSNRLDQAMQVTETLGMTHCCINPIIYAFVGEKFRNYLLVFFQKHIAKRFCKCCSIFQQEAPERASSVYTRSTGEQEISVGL

T5: CCR5 H181A, HA-tagged (human, UniProt P51681 1-352)
T5 sequence: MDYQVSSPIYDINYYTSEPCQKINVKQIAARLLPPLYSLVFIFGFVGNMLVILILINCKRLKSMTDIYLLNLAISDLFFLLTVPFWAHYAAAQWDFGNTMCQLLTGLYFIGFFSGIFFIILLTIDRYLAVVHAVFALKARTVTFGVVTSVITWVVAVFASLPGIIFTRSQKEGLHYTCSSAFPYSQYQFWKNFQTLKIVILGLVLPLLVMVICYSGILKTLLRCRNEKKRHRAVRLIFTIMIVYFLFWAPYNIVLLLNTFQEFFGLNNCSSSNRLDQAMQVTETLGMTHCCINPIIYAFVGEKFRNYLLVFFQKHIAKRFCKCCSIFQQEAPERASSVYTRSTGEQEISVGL

T6: CCR5 E262A, HA-tagged (human, UniProt P51681 1-352)
T6 sequence: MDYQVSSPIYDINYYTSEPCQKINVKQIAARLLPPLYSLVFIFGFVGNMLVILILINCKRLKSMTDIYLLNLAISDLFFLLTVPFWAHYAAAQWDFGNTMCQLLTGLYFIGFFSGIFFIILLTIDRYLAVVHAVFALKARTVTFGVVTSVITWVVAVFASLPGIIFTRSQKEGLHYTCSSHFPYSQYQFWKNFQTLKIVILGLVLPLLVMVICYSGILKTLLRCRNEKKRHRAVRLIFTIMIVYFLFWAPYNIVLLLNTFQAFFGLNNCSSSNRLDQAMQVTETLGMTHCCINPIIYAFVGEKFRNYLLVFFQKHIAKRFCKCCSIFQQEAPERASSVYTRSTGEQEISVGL

T7: CCR5 H175A, HA-tagged (human, UniProt P51681 1-352)
T7 sequence: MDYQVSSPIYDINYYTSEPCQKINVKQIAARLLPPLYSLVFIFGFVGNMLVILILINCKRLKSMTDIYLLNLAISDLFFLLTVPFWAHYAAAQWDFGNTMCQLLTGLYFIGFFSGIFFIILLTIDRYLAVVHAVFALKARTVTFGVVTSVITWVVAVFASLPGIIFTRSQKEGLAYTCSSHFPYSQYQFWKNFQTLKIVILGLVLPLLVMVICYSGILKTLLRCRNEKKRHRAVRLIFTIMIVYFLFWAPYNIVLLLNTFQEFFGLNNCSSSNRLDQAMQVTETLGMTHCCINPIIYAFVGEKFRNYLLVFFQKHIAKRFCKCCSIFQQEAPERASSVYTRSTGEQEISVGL


Columns and labels:
Assay in all cases: cell-based or functional assay
CCR5 D2A, HA-tagged = target: T1, CCR5 D2A, HA-tagged
[1] = target: T2, CCR5 R274A/D276A, HA-tagged
CCR5 E18A, HA-tagged = target: T3, CCR5 E18A, HA-tagged
[2] = target: T4, CCR5 K171A/E172A, HA-tagged
CCR5 H181A, HA-tagged = target: T5, CCR5 H181A, HA-tagged
CCR5 E262A, HA-tagged = target: T6, CCR5 E262A, HA-tagged
CCR5 H175A, HA-tagged = target: T7, CCR5 H175A, HA-tagged

Binder | relative % inhibition of NLluc/JR-FL entry into U87MG-CD4 cells by 2 µg/ml chemokine (wild-type = 100) (CCR5 D2A, HA-tagged) | relative % inhibition of NLluc/JR-FL entry into U87MG-CD4 cells by 2 µg/ml chemokine (wild-type = 100) [1] | relative % inhibition of NLluc/JR-FL entry into U87MG-CD4 cells by 2 µg/ml chemokine (wild-type = 100) (CCR5 E18A, HA-tagged) | relative % inhibition of NLluc/JR-FL entry into U87MG-CD4 cells by 2 µg/ml chemokine (wild-type = 100) [2] | relative % inhibition of NLluc/JR-FL entry into U87MG-CD4 cells by 2 µg/ml chemokine (wild-type = 100) (CCR5 H181A, HA-tagged) | relative % inhibition of NLluc/JR-FL entry into U87MG-CD4 cells by 2 µg/ml chemokine (wild-type = 100) (CCR5 E262A, HA-tagged) | relative % inhibition of NLluc/JR-FL entry into U87MG-CD4 cells by 2 µg/ml chemokine (wild-type = 100) (CCR5 H175A, HA-tagged)
macrophage inflammatory protein (MIP)-1β, recombinant human (ligand, UniProt P13236 24-92, looked up) APMGSDPPTACCFSYTARKLPRNFVVDYYETSSLCSQPAVVFQTKRSKQVCADPSESWVQEYVYDLELN | 97% | 36% | 100% | 97% | 53% | 102% | 100%
RANTES, recombinant human (ligand) SPYSSDTTPCCFAYIARPLPRAHIKEYFYTSGKCSNPAVVFVTRKNRQVCANPEKKWVREYINSLEMS | 85% | 33% | 62% | 107% | 39% | 100% | 95%
